Two molecules from patent publication US20220119509A1 (ARGENX, published 2022) can be followed below.

Assay [1] addresses T1, wild type C2 with C-terminal FLAG tag (human, UniProt P06681 21-752).
T1 construct: Secreted into the supernatant of transfected HEK293T cells; not shown: C-terminal FLAG tag
T1 sequence: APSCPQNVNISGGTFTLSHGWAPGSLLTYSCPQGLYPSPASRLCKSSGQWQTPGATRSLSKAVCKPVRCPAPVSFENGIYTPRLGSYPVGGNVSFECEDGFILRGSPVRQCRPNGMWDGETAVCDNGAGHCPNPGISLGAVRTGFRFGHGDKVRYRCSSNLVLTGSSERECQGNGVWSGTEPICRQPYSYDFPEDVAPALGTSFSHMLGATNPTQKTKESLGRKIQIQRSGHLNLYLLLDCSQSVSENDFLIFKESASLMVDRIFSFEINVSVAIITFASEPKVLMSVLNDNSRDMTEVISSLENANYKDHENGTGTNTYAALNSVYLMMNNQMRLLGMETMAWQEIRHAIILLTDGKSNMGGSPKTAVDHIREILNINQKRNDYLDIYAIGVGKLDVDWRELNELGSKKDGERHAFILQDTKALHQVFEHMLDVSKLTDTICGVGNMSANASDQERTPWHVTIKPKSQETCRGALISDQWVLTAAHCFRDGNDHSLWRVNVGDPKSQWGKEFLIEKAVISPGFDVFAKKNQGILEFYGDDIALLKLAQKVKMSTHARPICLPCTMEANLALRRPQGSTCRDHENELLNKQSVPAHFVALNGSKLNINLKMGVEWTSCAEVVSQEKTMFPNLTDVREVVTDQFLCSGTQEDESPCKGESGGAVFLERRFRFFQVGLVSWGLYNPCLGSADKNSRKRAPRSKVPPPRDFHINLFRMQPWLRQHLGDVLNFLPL
The assay can be described thus: sandwich ELISA: coated anti-C2-5F2.4, HEK293 supernatant diluted 20 times, detection with anti-FLAG. As for the experimental part: FIG. 12 depicts results obtained with a domain swap ELISA performed with anti-C2-5F2.4. Anti-C2-5F2.4 mAb (human IgG4 S241P VH4/VL3 LC-13/03-163A Bioceros) was used for coating, plates were incubated with 20 times diluted supernatant of HEK293 transfectants, and binding was detected by an anti-FLAG Ab. Representative results from two independent experiments with similar outcome.
Next, the recognition of the swap mutants by the anti-C2-5F2.4 antibody was investigated. To this effect, microplates (Maxisorp, NUNC, Cat #439454) were coated overnight with 2 μg/mL anti-C2-5F2.4 in 100 μL PBS. Plates were washed 4 times with PBS with 0.05% Tween-20 and blocked with 200 μL PBS with 0.1% Tween-20 with 1% bovine serum albumin (BSA) (PBST-BSA) for 1 hour at RT. After washing, 100 μL culture supernatant containing mutants were added 20× diluted in PBST-BSA and incubated for 2 hours at RT with agitation. After washing, as detection antibody 1 μg/mL biotinylated anti-FLAG (clone M2, Sigma-Aldrich) was added in PBST-BSA for 1 hour at RT. The plate was washed and 1 μg/mL streptavidin-POD conjugate (Roche, Cat #11089153001) was added and incubated in the dark for 30 minutes. […] Absorbance was measured at 450 nm on a microplate reader (BioRad, iMark Microplate reader).
(An ELISA detects its analyte on a solid surface through an enzyme-linked reagent.)

For assay [2], the target named is T2, huC2b with mouse S2 (huC2b-mS2) (mouse, UniProt P06681 21-243 (human entry)).
T2 chain: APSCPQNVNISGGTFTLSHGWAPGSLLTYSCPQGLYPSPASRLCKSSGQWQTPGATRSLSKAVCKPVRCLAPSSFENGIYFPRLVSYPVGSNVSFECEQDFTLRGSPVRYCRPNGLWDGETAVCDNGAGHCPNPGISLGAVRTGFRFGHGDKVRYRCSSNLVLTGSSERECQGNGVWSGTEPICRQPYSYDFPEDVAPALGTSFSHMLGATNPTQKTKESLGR
The assay can be described thus: sandwich ELISA: coated anti-C2-5F2.4, HEK293 supernatant, detection with anti-FLAG.

In assay [3] the target is T3, human C2b fragment (huC2b) (human, UniProt P06681 21-243).
T3 construct: Supernatant of transfected HEK293 cells; not shown: FLAG tag (the construct is detected with anti-FLAG)
T3 sequence: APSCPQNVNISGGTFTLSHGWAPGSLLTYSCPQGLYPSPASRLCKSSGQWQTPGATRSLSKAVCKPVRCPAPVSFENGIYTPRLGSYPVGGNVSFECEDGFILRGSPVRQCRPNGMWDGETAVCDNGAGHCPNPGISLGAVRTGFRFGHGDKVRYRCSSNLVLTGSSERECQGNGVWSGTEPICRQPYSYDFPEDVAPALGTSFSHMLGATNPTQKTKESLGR
The assay is described as follows: sandwich ELISA: coated anti-C2-5F2.4, HEK293 supernatant diluted 20 times, detection with anti-FLAG.

The target of a further assay is T4, mouse C2 (mouse, UniProt P21180 19-760, limits assumed).
T4 sequence (looked up): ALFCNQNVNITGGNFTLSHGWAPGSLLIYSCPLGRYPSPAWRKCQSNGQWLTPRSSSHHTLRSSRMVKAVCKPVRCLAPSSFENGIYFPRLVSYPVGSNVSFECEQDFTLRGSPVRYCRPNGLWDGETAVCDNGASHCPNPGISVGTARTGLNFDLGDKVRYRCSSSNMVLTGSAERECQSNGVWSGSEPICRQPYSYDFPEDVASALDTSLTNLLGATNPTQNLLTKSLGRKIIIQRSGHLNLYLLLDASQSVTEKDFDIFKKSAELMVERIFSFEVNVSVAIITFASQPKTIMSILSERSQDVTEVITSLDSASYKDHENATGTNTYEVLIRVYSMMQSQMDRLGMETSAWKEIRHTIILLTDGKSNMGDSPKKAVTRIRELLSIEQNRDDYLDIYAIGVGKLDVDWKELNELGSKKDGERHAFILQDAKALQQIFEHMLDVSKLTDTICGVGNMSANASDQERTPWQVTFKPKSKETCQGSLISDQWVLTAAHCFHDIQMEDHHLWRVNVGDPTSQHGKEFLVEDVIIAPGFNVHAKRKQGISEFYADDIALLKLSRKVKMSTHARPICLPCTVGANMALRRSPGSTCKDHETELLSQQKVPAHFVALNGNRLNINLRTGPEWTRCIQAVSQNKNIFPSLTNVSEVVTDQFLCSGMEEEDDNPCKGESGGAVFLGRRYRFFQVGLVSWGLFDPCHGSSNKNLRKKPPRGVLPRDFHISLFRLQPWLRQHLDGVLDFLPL
The assay is described as follows: not described.

The target of assay [4] is T5, human complement factor C2 (human, UniProt P06681 21-752).
T5 construct: also called human C2; recombinant human C2
T5 sequence: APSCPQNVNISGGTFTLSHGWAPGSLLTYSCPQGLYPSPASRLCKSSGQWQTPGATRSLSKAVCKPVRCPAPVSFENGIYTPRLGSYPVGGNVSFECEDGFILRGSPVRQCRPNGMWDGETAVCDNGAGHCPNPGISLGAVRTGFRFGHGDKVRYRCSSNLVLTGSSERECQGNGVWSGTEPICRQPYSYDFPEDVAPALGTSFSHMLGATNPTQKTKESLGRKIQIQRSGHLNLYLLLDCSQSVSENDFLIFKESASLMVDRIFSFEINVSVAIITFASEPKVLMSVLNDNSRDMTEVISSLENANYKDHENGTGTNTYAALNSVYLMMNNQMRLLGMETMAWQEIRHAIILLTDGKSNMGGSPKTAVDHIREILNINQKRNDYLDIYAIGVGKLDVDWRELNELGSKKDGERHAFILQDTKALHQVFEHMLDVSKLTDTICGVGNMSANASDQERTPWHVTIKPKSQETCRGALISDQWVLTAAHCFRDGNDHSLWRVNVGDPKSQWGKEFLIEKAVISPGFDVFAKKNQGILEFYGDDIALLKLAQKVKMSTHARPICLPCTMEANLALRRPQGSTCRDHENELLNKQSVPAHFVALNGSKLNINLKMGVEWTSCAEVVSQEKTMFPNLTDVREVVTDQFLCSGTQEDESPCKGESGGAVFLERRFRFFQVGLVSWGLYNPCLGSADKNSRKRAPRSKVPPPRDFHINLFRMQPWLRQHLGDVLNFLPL
The assay can be described thus: SPR (Biacore), C2 coated on the chip, Fab in solution, 1:1 model; C2 on the chip, Fab in solution. On the technique in general: In SPR one partner is held on a chip, and binding of the other changes the refractive index at the surface.

B1: anti-C2-5F2.4 mAb (human IgG4 S241P VH4/VL3 LC-13/03-163A Bioceros) (antibody, V domains shown)
VH: EVQLVQSGAEVKKPGASVKVSCKASGYTFTDYNMDWVRQATGQGLEWIGDINPNYESTGYNQKFKGRATMTVNKSISTAYMELSSLRSEDTAVYYCAREDDHDAFAYWGQGTLVTVSS
VL: DNVLTQSPDSLAVSLGERATISCRASKSVRTSGYNYMHWYQQKPGQPPKLLIYLASNLKSGVPDRFSGSGSGTDFTLTISSLQAEDAATYYCQHSRELPYTFGQGTKLEIK
notes: Human IgG4 S241P; also called humanized 5F2.4
For B1, the binding result in assay [1] is “binds”; in assay [2], “no binding”; in assay [3] it was “binds”; with mouse C2, “no binding”.

B2: Fab of ARGX-117 (Fab, V domains shown)
VH: EVQLVQSGAEVKKPGASVKVSCKASGYTFTDYNMDWVRQATGQGLEWIGDINPNYESTGYNQKFKGRATMTVDKSISTAYMELSSLRSEDTAVYYCAREDDHDAFAYWGQGTLVTVSS
VL: DNVLTQSPDSLAVSLGERATISCRASKSVRTSGYNYMHWYQQKPGQPPKLLIYLASNLKSGVPDRFSGSGSGTDFTLTISSLQAEDAATYYCQHSRELPYTFGQGTKLEIK
For the molecule B2, the dissociation constant Kd (as a rule, the equilibrium constant for the complex coming apart) in assay [4] was approximately 0.3 nM.
